What was measured:
Hop1 K65A,N67Q [1] = target: T1, Hop1 K65A,N67Q (Saccharomyces cerevisiae, UniProt P20050 1-605, K65A;N67Q); assay: MST; 25 nM HJ; EMSA: 25 mM HEPES pH 7.5, 0.5 nM 32P-HJ, 37 C 15 min, 8% PAGE in TBE (25 mM Tris base pH 8.0, 25 mM boric acid, 0.5 mM EDTA) at 4 C; MST: 25 nM 6-FAM HJ, buffer not in material; details: protein: recombinant; tags: His6 (pET28a); label: 5'-6FAM on HJ02; four-way junction of 4 strands
T1 sequence: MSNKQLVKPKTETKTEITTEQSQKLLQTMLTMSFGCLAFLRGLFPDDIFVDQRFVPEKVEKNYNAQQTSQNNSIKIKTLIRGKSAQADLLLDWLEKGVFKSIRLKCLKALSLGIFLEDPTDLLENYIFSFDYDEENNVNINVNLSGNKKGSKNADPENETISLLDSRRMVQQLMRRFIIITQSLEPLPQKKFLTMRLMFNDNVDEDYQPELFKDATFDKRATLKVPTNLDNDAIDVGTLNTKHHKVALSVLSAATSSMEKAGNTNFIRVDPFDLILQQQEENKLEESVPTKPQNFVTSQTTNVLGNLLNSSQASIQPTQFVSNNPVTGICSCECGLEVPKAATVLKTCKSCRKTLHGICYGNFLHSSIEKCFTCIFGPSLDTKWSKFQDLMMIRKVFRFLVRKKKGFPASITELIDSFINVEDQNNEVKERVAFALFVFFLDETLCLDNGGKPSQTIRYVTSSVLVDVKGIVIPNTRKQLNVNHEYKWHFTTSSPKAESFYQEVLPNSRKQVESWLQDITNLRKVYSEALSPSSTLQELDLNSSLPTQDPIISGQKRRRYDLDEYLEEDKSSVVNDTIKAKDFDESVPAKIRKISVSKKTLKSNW

Hop1 K65A,N67Q [2] = target: T1, Hop1 K65A,N67Q; assay: EMSA; 0.5 nM HJ; EMSA: 25 mM HEPES pH 7.5, 0.5 nM 32P-HJ, 37 C 15 min, 8% PAGE in TBE (25 mM Tris base pH 8.0, 25 mM boric acid, 0.5 mM EDTA) at 4 C; MST: 25 nM 6-FAM HJ, buffer not in material; details: protein: recombinant; tags: His6 (pET28a); label: 5'-32P on HJ02; four-way junction of 4 strands

B1: Holliday junction (HJ), 6-FAM (structured_DNA)
DNA 1: GACGCTGCCGAATTCTACCAGTGCCTTGCTAGGACATCTTTGCCCACCTGCCGGTTCACCC
DNA 2: TGGGTGAACCTGCAGGTGGGCAAAGATGTCCTAGCAATGTAATCGTCAAAGCTTTATGCCGTT
DNA 3: CAACGGCATAAAGCTTGACGATTACATTGCTAGGACATGCTGTCTAGAGGATCCGACTATCGA
DNA 4: ATCGATAGTCGGATCCTCTAGACAGCATGTCCTAGCAAGGCACTGGTAGAATTCGGCAGCGT
Hop1 K65A,N67Q [1]
  Kd: 495 nM

B2: Holliday junction (HJ), 32P (structured_DNA)
DNA 1: B1 DNA 1
DNA 2: B1 DNA 2
DNA 3: B1 DNA 3
DNA 4: B1 DNA 4
Hop1 K65A,N67Q [2]
  binding signal: ~1.7 fold lower affinity than WT
